{"source": "paper doi:10.1101/2020.12.18.423415", "target": "SARS-CoV-2 Spike protein (S protein) (SARS-CoV-2) (UniProt P0DTC2)", "assay": "ELISA", "data": [{"substance": "recombinant fragment of human surfactant protein D (rfhSP-D) (from UniProt P35247 201-375) (domain or fragment)", "values": [{"measurement": "percent decrease of S protein-hACE-2 binding (rfhSP-D increased 5-fold)", "result": 50, "unit": "%"}]}]}
